# Patent publication US8637024 (dated 2014)
# Where two headings read alike, the source gives them in different places.
# How the values were obtained:
# human soluble CD4 (sCD4) [1] = target: T1, human soluble CD4 (sCD4) (human, UniProt P01730); assay: competition ELISA
# human soluble CD4 (sCD4) [2] = target: T1, human soluble CD4 (sCD4)
# human soluble CD4 (sCD4) [3] = target: T1, human soluble CD4 (sCD4); remark: listed apart in the source
# human soluble CD4 (sCD4) [4] = target: T1, human soluble CD4 (sCD4); assay: SPR
# human soluble CD4 (sCD4) [5] = target: T1, human soluble CD4 (sCD4); assay: SPR; remark: listed apart in the source
Binder,binding result (human soluble CD4 (sCD4) [1]),Kd (human soluble CD4 (sCD4) [2]),Kd (human soluble CD4 (sCD4) [3]),Kd (human soluble CD4 (sCD4) [4]),Kd (human soluble CD4 (sCD4) [5])
iMabΔm36 (iMab arm) (antibody) chain 1: MEWSGVFMFLLSVTAGVHSQVQLQQSGPEVVKPGASVKMSCKASGYTFTSYVIHWVRQKPGQGLDWIGYINPYNDGTDYDEKFKGKATLTSDTSTSTAYMELSSLRSEDTAVYYCARAKDNAATGAWFAYWGQGTLVTVSSASTKGPSVFPLAPSSKSTSGGTAALGCLVKDYFPEPVTVSWNSGALTSGVHTFPAVLQSSGLYSLSSVVTVPSSSLGTQTYICNVNHKPSNTKVDKKVEPKSCDKTHTCPPCPAPEFEGGPSVFLFPPKPKDTLMISRTPEVTCVVVDVSHEDPEVKFNWYVDGVEVHNAKTKPREEQYNSTYRVVSVLTVLHQDWLNGKEYKCKVSNKALPASIEKTISKAKGQPREPQVYTLPPSRDELTKNQVSLTCLVKGFYPSDIAVEWESNGQPENNYKTTPPVLDSDGSFFLYSKLTVDKSRWQQGNVFSCSVLHEALHSHYTQKSLSLSPGKLEGGGGSGGGGSGGGGSGQVQLVQSGGGLVQPGGSLRLSCAASAFDFSDYEMSWVRQAPGKGLEWIGEINDSGNTIYNPSLKSRVTISRDNSKNTLYLQMNTLRAEDTAIYYCAIYGGNSGGEYWGQGTLVTVSS chain 2: not shown,no binding,,,,
"m36 (antibody, V domains shown) VH: QVQLVQSGGGLVQPGGSLRLSCAASAFDFSDYEMSWVRQAPGKGLEWIGEINDSGNTIYNPSLKSRVTISRDNSKNTLYLQMNTLRAEDTAIYYCAIYGGNSGGEYWGQGTLVTVSS",no binding,,,,
"SQTLH (clone 33) (antibody, V domains shown) VH: QVQLQQSGPEVVKPGASVKMSCKASGYTFTSQTLHWVRQKPGQGLDWIGYINPYNDGTDYDEKFKGKATLTSDTSTSTAYMELSSLRSEDTAVYYCAREKDNYATGAWFAYWGQGTLVTVSS VL: DIVMTQSPDSLAVSLGERVTMNCKSSQSLLYSTNQKNYLAWYQQKPGQSPKLLIYWASTRESGVPDRFSGSGSGTDFTLTISSVQAEDVAVYYCQQYYSYRTFGGGTKLEIK",,0.012 nM,0.012 nM,,
"ML11 (antibody, V domains shown) VH: QVQLQQSGPEVVKPGASVKMSCKASGYTFTSYVIHWVRQKPGQGLDWIGYINPYNDGTDYDEKFKGKATLTSDTSTSTAYMELSSLRSEDTAVYYCVREKDSFATGAWFAYWGQGTLVTVSS VL: DIVMTQSPDSLAVSLGERVTMNCKSSQSLLYSTNQKNYLAWYQQKPGQSPKLLIYWASTRESGVPDRFSGSGSGTDFTLTISSVQAEDVAVYYCQQYYSYRTFGGGTKLEIK",,,2.47 nM,6.72 nM,
"M24 (CDR-H1 EQTLH) (antibody, V domains shown) VH: QVQLQQSGPEVVKPGASVKMSCKASGYTFTEQTLHWVRQKPGQGLDWIGYINPYNDGTDYDEKFKGKATLTSDTSTSTAYMELSSLRSEDTAVYYCAREKDNYATGAWFAYWGQGTLVTVSS VL: DIVMTQSPDSLAVSLGERVTMNCKSSQSLLYSTNQKNYLAWYQQKPGQSPKLLIYWASTRESGVPDRFSGSGSGTDFTLTISSVQAEDVAVYYCQQYYSYRTFGGGTKLEIK",,0.0097 nM,0.0097 nM,0.0042 nM,0.018 nM
"DQTLH (clone 27, 31) (antibody, V domains shown) VH: QVQLQQSGPEVVKPGASVKMSCKASGYTFTDQTLHWVRQKPGQGLDWIGYINPYNDGTDYDEKFKGKATLTSDTSTSTAYMELSSLRSEDTAVYYCAREKDNYATGAWFAYWGQGTLVTVSS VL: DIVMTQSPDSLAVSLGERVTMNCKSSQSLLYSTNQKNYLAWYQQKPGQSPKLLIYWASTRESGVPDRFSGSGSGTDFTLTISSVQAEDVAVYYCQQYYSYRTFGGGTKLEIK",,0.015 nM,0.015 nM,,
"ML1 (CDR-H1 SRVLS) (antibody, V domains shown) VH: QVQLQQSGPEVVKPGASVKMSCKASGYTFTSRVLSWVRQKPGQGLDWIGYINPYNDGTDYDEKFKGKATLTSDTSTSTAYMELSSLRSEDTAVYYCAREKDNYATGAWFAYWGQGTLVTVSS VL: DIVMTQSPDSLAVSLGERVTMNCKSSQSLLYSTNQKNYLAWYQQKPGQSPKLLIYWASTRESGVPDRFSGSGSGTDFTLTISSVQAEDVAVYYCQQYYSYRTFGGGTKLEIK",,,2.13 nM,2.14 nM,
"E95A (antibody, V domains shown) VH: QVQLQQSGPEVVKPGASVKMSCKASGYTFTSYVIHWVRQKPGQGLDWIGYINPYNDGTDYDEKFKGKATLTSDTSTSTAYMELSSLRSEDTAVYYCARAKDNYATGAWFAYWGQGTLVTVSS VL: DIVMTQSPDSLAVSLGERVTMNCKSSQSLLYSTNQKNYLAWYQQKPGQSPKLLIYWASTRESGVPDRFSGSGSGTDFTLTISSVQAEDVAVYYCQQYYSYRTFGGGTKLEIK",,,,,7.7 nM
"GQTLH (clone 25, 37) (antibody, V domains shown) VH: QVQLQQSGPEVVKPGASVKMSCKASGYTFTGQTLHWVRQKPGQGLDWIGYINPYNDGTDYDEKFKGKATLTSDTSTSTAYMELSSLRSEDTAVYYCAREKDNYATGAWFAYWGQGTLVTVSS VL: DIVMTQSPDSLAVSLGERVTMNCKSSQSLLYSTNQKNYLAWYQQKPGQSPKLLIYWASTRESGVPDRFSGSGSGTDFTLTISSVQAEDVAVYYCQQYYSYRTFGGGTKLEIK",,0.0173 nM,,,
"EYTFH (clone 40) (antibody, V domains shown) VH: QVQLQQSGPEVVKPGASVKMSCKASGYTFTEYTFHWVRQKPGQGLDWIGYINPYNDGTDYDEKFKGKATLTSDTSTSTAYMELSSLRSEDTAVYYCAREKDNYATGAWFAYWGQGTLVTVSS VL: DIVMTQSPDSLAVSLGERVTMNCKSSQSLLYSTNQKNYLAWYQQKPGQSPKLLIYWASTRESGVPDRFSGSGSGTDFTLTISSVQAEDVAVYYCQQYYSYRTFGGGTKLEIK",,0.0112 nM,0.0112 nM,,
"SQTIH (clone 23) (antibody, V domains shown) VH: QVQLQQSGPEVVKPGASVKMSCKASGYTFTSQTIHWVRQKPGQGLDWIGYINPYNDGTDYDEKFKGKATLTSDTSTSTAYMELSSLRSEDTAVYYCAREKDNYATGAWFAYWGQGTLVTVSS VL: DIVMTQSPDSLAVSLGERVTMNCKSSQSLLYSTNQKNYLAWYQQKPGQSPKLLIYWASTRESGVPDRFSGSGSGTDFTLTISSVQAEDVAVYYCQQYYSYRTFGGGTKLEIK",,0.0192 nM,0.0192 nM,,
"AQTLH (clone 30) (antibody, V domains shown) VH: QVQLQQSGPEVVKPGASVKMSCKASGYTFTAQTLHWVRQKPGQGLDWIGYINPYNDGTDYDEKFKGKATLTSDTSTSTAYMELSSLRSEDTAVYYCAREKDNYATGAWFAYWGQGTLVTVSS VL: DIVMTQSPDSLAVSLGERVTMNCKSSQSLLYSTNQKNYLAWYQQKPGQSPKLLIYWASTRESGVPDRFSGSGSGTDFTLTISSVQAEDVAVYYCQQYYSYRTFGGGTKLEIK",,0.0107 nM,0.0107 nM,,
"ML26 (antibody, V domains shown) VH: QVQLQQSGPEVVKPGASVKMSCKASGYTFTSYVIHWVRQKPGQGLDWIGYINPYNDGTDYDEKFKGKATLTSDTSTSTAYMELSSLRSEDTAVYYCARQAANYATGAWFAYWGQGTLVTVSS VL: DIVMTQSPDSLAVSLGERVTMNCKSSQSLLYSTNQKNYLAWYQQKPGQSPKLLIYWASTRESGVPDRFSGSGSGTDFTLTISSVQAEDVAVYYCQQYYSYRTFGGGTKLEIK",,,3.64 nM,4.14 nM,
"M3 (CDR-H1 EYTIH) (antibody, V domains shown) VH: QVQLQQSGPEVVKPGASVKMSCKASGYTFTEYTIHWVRQKPGQGLDWIGYINPYNDGTDYDEKFKGKATLTSDTSTSTAYMELSSLRSEDTAVYYCAREKDNYATGAWFAYWGQGTLVTVSS VL: DIVMTQSPDSLAVSLGERVTMNCKSSQSLLYSTNQKNYLAWYQQKPGQSPKLLIYWASTRESGVPDRFSGSGSGTDFTLTISSVQAEDVAVYYCQQYYSYRTFGGGTKLEIK",,,,,0.033 nM
"M28 (CDR-H1 DYTFH) (antibody, V domains shown) VH: QVQLQQSGPEVVKPGASVKMSCKASGYTFTDYTFHWVRQKPGQGLDWIGYINPYNDGTDYDEKFKGKATLTSDTSTSTAYMELSSLRSEDTAVYYCAREKDNYATGAWFAYWGQGTLVTVSS VL: DIVMTQSPDSLAVSLGERVTMNCKSSQSLLYSTNQKNYLAWYQQKPGQSPKLLIYWASTRESGVPDRFSGSGSGTDFTLTISSVQAEDVAVYYCQQYYSYRTFGGGTKLEIK",,0.0132 nM,0.0132 nM,,0.014 nM
"NQTLH (clone 26, 36) (antibody, V domains shown) VH: QVQLQQSGPEVVKPGASVKMSCKASGYTFTNQTLHWVRQKPGQGLDWIGYINPYNDGTDYDEKFKGKATLTSDTSTSTAYMELSSLRSEDTAVYYCAREKDNYATGAWFAYWGQGTLVTVSS VL: DIVMTQSPDSLAVSLGERVTMNCKSSQSLLYSTNQKNYLAWYQQKPGQSPKLLIYWASTRESGVPDRFSGSGSGTDFTLTISSVQAEDVAVYYCQQYYSYRTFGGGTKLEIK",,0.0406 nM,,,
"ML29 (antibody, V domains shown) VH: QVQLQQSGPEVVKPGASVKMSCKASGYTFTSYVIHWVRQKPGQGLDWIGYINPYNDGTDYDEKFKGKATLTSDTSTSTAYMELSSLRSEDTAVYYCAREKDSLTTGAWFAYWGQGTLVTVSS VL: DIVMTQSPDSLAVSLGERVTMNCKSSQSLLYSTNQKNYLAWYQQKPGQSPKLLIYWASTRESGVPDRFSGSGSGTDFTLTISSVQAEDVAVYYCQQYYSYRTFGGGTKLEIK",,,2.23 nM,4.83 nM,
"M22 (CDR-H1 DYTIH) (antibody, V domains shown) VH: QVQLQQSGPEVVKPGASVKMSCKASGYTFTDYTIHWVRQKPGQGLDWIGYINPYNDGTDYDEKFKGKATLTSDTSTSTAYMELSSLRSEDTAVYYCAREKDNYATGAWFAYWGQGTLVTVSS VL: DIVMTQSPDSLAVSLGERVTMNCKSSQSLLYSTNQKNYLAWYQQKPGQSPKLLIYWASTRESGVPDRFSGSGSGTDFTLTISSVQAEDVAVYYCQQYYSYRTFGGGTKLEIK",,0.0346 nM,0.0346 nM,,0.047 nM
"ML28 (antibody, V domains shown) VH: QVQLQQSGPEVVKPGASVKMSCKASGYTFTSYVIHWVRQKPGQGLDWIGYINPYNDGTDYDEKFKGKATLTSDTSTSTAYMELSSLRSEDTAVYYCAREKDNYAVPGWFAYWGQGTLVTVSS VL: DIVMTQSPDSLAVSLGERVTMNCKSSQSLLYSTNQKNYLAWYQQKPGQSPKLLIYWASTRESGVPDRFSGSGSGTDFTLTISSVQAEDVAVYYCQQYYSYRTFGGGTKLEIK",,,1.41 nM,1.76 nM,
